Experiment [1] deals with T1, extracellular domain of Tfr2 (Tfr2-ECD), recombinant His-MBP-c3-Tfr2-ECD (murine, UniProt Q9JKX3 103-798).
T1 sequence: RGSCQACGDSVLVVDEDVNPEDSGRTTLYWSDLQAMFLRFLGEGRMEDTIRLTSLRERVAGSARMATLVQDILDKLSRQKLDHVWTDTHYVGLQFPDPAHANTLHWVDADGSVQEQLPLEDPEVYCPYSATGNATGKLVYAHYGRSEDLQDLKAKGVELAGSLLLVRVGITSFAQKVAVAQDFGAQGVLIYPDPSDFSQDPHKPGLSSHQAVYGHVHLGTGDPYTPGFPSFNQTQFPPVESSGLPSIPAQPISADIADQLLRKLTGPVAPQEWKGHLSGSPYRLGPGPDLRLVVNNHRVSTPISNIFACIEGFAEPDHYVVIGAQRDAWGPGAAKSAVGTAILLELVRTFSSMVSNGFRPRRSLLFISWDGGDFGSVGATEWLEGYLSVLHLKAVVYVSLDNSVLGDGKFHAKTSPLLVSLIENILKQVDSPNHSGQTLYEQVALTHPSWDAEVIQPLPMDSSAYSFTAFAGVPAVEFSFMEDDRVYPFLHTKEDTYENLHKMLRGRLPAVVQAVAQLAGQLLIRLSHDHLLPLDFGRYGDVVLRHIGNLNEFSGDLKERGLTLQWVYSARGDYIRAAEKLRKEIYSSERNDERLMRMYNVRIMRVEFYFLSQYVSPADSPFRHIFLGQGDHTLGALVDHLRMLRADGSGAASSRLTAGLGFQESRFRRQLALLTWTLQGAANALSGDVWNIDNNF
As to the kind of experiment: SPR.

For experiment [2], the target named is T1, extracellular domain of Tfr2 …. Description: SPR. This is another data set of the same source.

B1: BMP-4 (ligand)
chain: SPKHHSQRARKKNKNCRRHSLYVDFSDVGWNDWIVAPPGYQAFYCHGDCPFPLADHLNSTNHAIVQTLVNSVNSSIPKACCVPTELSAISMLYLDEYDKVVLKNYQEMVVEGCGCR
Turning to B1, the Kd in experiment [1] came out at 409 ± 39 nM.

B2: BMP-2 (ligand)
chain: QAKHKQRKRLKSSCKRHPLYVDFSDVGWNDWIVAPPGYHAFYCHGECPFPLADHLNSTNHAIVQTLVNSVNSKIPKACCVPTELSAISMLYLDENEKVVLKNYQDMVVEGCGCR
Consider B2, for which the “fold binding level against holo-Tf” value in experiment [2] was above 10 fold. Besides, in experiment [1], the Kd was 488 ± 37 nM.

In general, Kd refers to a measure of binding affinity in units of concentration.

Values taken from article PMC6420074 (Nature metabolism, 2019).
